# Data taken from IntAct's records for PubMed 29276004.
# B1: Rho-related BTB domain-containing protein 2 (Homo sapiens), Q9BYZ6-2 (parent)
# chain: MQAWRKGPDGPQKTSSDSMSRLMDSDMDYERPNVETIKCVVVGDNAVGKTRLICARACNATLTQYQLLATHVPTVWAIDQYRVCQEVLERSRDVVDDVSVSLRLWDTFGDHHKDRRFAYGRSDVVVLCFSIANPNSLHHVKTMWYPEIKHFCPRAPVILVGCQLDLRYADLEAVNRARRPLARPIKPNEILPPEKGREVAKELGIPYYETSVVAQFGIKDVFDNAIRAALISRRHLQFWKSHLRNVQRPLLQAPFLPPKPPPPIIVVPDPPSSSEECPAHLLEDPLCADVILVLQERVRIFAHKIYLSTSSSKFYDLFLMDLSEGELGGPSEPGGTHPEDHQGHSDQHHHHHHHHHGRDFLLRAASFDVCESVDEAGGSGPAGLRASTSDGILRGNGTGYLPGRGRVLSSWSRAFVSIQEEMAEDPLTYKSRLMVVVKMDSSIQPGPFRAVLKYLYTGELDENERDLMHIAHIAELLEVFDLRMMVANILNNEAFMNQEITKAFHVRRTNRVKECLAKGTFSDVTFILDDGTISAHKPLLISSCDWMAAMFGGPFVESSTREVVFPYTSKSCMRAVLEYLYTGMFTSSPDLDDMKLIILANRLCLPHLVALTEQYTVTGLMEATQMMVDIDGDVLVFLELAQFHCAYQLADWCLHHICTNYNNVCRKFPRDMKAMSPENQEYFEKHRWPPVWYLKEEDHYQRARKEREKEDYLHLKRQPKRRWLFWNSPSSPSSSAASSSSPSSSSAVV
# Variants of: B1
# Settings: with cul3_human CUL3, Q13618
row,effect of a mutation on the interaction,Variant
1,with no effect,R483H
2,with no effect,A474G
3,with no effect,R511Q
